Data published in publication PMC7769916 (Cellular and molecular life sciences : CMLS, 2020).

Tests used:
[1] = biological target: Plexin-B1 ICD R1900E.R1904E (human) (UniProt O43157)
[2] = biological target: Plexin-B1 ICD E1530R.E1533R (human) (UniProt O43157)
[3] = biological target: Plexin-B1 ICD E1530R.E1533R (human, UniProt O43157 1511-2135, E1530R | E1533R); assay: MST
[4] = biological target: Plexin-B1 ICD R1900E.R1904E (human, UniProt O43157 1511-2135, R1900E | R1904E); assay: MST
[5] = biological target: Plexin-B1 ICD FL [res. 1511-2135] (human, UniProt O43157 1511-2135); assay: MST
Sequence of Plexin-B1 ICD FL [res. 1511-2135] (O43157 1511-2135): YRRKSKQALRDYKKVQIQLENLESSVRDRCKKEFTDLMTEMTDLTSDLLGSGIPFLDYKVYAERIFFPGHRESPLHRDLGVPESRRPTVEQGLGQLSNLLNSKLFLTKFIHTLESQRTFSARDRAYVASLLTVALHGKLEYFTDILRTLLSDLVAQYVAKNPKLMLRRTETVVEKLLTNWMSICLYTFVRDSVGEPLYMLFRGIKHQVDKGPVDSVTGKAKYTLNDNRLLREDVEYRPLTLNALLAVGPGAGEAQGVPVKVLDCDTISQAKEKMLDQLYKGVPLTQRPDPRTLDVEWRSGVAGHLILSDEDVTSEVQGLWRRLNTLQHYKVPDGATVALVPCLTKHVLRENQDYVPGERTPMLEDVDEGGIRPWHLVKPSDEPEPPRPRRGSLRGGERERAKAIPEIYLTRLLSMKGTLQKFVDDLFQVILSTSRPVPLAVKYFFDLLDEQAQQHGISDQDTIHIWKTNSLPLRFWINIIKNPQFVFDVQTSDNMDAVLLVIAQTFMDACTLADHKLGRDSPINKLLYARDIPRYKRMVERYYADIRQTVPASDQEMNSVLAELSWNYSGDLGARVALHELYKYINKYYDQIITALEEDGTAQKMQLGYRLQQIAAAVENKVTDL

Sequence of Human Rap1b wild type [res. 1 to 184] (P61224 whole entry): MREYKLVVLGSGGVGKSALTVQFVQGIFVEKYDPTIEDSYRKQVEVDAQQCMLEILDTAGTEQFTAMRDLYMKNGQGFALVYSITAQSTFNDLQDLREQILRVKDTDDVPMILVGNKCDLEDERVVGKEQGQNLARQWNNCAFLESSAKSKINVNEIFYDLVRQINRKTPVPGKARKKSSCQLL
Sequence of Plexin-B1 ICD R1900E.R1904E (O43157 1511-2135 R1900E/R1904E): as the sequence (O43157 1511-2135) above, with R390E, R394E counted along it
Sequence of Plexin-B1 ICD R1900E.R1904E (human) (O43157 1511-2135 R1900E/R1904E): as the sequence (O43157 1511-2135) above, with R390E, R394E counted along it
Sequence of Plexin-B1 ICD E1530R.E1533R (human) (O43157 1511-2135 E1530R/E1533R): as the sequence (O43157 1511-2135) above, with E20R, E23R counted along it
Sequence of Plexin-B1 ICD E1530R.E1533R (O43157 1511-2135 E1530R/E1533R): as the sequence (O43157 1511-2135) above, with E20R, E23R counted along it

| loss of GAP activity towards Rap1b against wild type Plexin-B1 ICR [1] [%] | loss of GAP activity towards Rap1b against wild type Plexin-B1 ICR [2] [%] | Kd [3] [µM] | Kd [4] [µM] | binding result [5] | Molecule |
| --- | --- | --- | --- | --- | --- |
| > 50 | > 50 | – | – | – | Human Rap1b wild type [res. 1 to 184] (from UniProt P61224 1-184) (enzyme) |
| – | – | > 100 | > 100 | binds | Rap1b G12V (constitutive active mutant) [res. 1 to 184] (enzyme, human, UniProt P61224 1-184, looked up) MREYKLVVLGSVGVGKSALTVQFVQGIFVEKYDPTIEDSYRKQVEVDAQQCMLEILDTAGTEQFTAMRDLYMKNGQGFALVYSITAQSTFNDLQDLREQILRVKDTDDVPMILVGNKCDLEDERVVGKEQGQNLARQWNNCAFLESSAKSKINVNEIFYDLVRQINRKTPVPGKARKKSSCQLL |
